Holding throughout (assay): cell-based or functional assay
In experiment [1] the target is HIV-1 94UG103 envelope glycoprotein (Env) on pseudovirus (HIV-1).
Experiment [2] addresses HIV-1 Env of isolate MGRM-AE-002 (HIV-1).
Experiment [3] addresses HIV-1 Env of isolate MGRM-F1-013 (HIV-1).
Experiment [4] addresses HIV-1 Env of isolate MGRM-G-011 (clade G pseudovirus) (HIV-1).
For experiment [5], the target named is HIV-1 Env of pseudovirus 93TH305, clade B (HIV-1).
In experiment [6] the target is HIV-1 Env of pseudovirus CAAN.A2 (Acute), clade B (HIV-1).
In experiment [7] the target is HIV-1 Env of pseudovirus THR0.18 (Acute), clade B (HIV-1).
Experiment [8] has as its target HIV-1 IAVI-C3 envelope protein (Env) on pseudovirus (HIV-1).
The target in experiment [9] is HIV-1 MGRM-A-007 envelope glycoprotein (Env) (HIV-1).
The target in experiment [10] is HIV-1 MGRM-A-009 envelope glycoprotein (Env) (HIV-1).
In experiment [11] the target is HIV-1 MGRM-C-022 Env (HIV-1).
Experiment [12] deals with HIV-1 CMU02 envelope glycoprotein (Env) on pseudovirus (HIV-1).
For experiment [13], the target named is HIV-1 Env of isolate MG RM-D-008 (subtype D) (HIV-1).
Experiment [14] concerns the target HIV-1 Env of isolate MG RM-D-011 (subtype D) (HIV-1).
Experiment [15] addresses HIV-1 Env of isolate MG RM-D-018 (subtype D) (HIV-1).
Experiment [16] addresses HIV-1 Env of isolate MG RM-D-028 (subtype D) (HIV-1).
Experiment [17] has as its target HIV-1 Env of isolate MGRM-C-007 (pseudovirus) (HIV-1 isolate MGRM-C-007, subtype C).
Experiment [18] addresses HIV-1 Env of isolate MGRM-C-012 (pseudovirus) (HIV-1 isolate MGRM-C-012, subtype C).
The target of experiment [19] is HIV-1 Env of isolate MGRM-C-015 (pseudovirus) (HIV-1 isolate MGRM-C-015, subtype C).
The target of experiment [20] is HIV-1 Env of isolate MGRM-F1-006 (subtype F) (HIV-1).
Experiment [21] concerns the target HIV-1 Env of isolate MGRM-F1-008 (subtype F) (HIV-1).
For experiment [22], the target named is HIV-1 JRCSF Env (pseudovirus) (HIV-1) (UniProt P20871).
Experiment [23] deals with HIV-1 MGRM-Chronic-B-001 Env (pseudovirus) (HIV-1).
Experiment [24] deals with HIV-1 93UG077 envelope glycoprotein (Env) on pseudovirus (HIV-1).
Experiment [25] deals with HIV-1 JR-CSF Env D474A (HIV-1 (isolate JR-CSF)) (UniProt P20871).
The target of experiment [26] is HIV-1 JR-CSF Env D477A (HIV-1 (isolate JR-CSF)) (UniProt P20871).
Experiment [27] addresses HIV-1 JR-CSF Env L179A (HIV-1 (isolate JR-CSF)) (UniProt P20871).
The target of experiment [28] is HIV-1 JR-CSF Env Y177A (HIV-1 (isolate JR-CSF)) (UniProt P20871).
In experiment [29] the target is HIV-1 Env of isolate 93UG077 (HIV-1).
The target of experiment [30] is HIV-1 Env of isolate MGRM-G-004 (subtype G) (HIV-1).
For experiment [31], the target named is HIV-1 Env of isolate 93IN905 (HIV-1).

Sequence of PGT-142 (4995_E20) (antibody) (VH): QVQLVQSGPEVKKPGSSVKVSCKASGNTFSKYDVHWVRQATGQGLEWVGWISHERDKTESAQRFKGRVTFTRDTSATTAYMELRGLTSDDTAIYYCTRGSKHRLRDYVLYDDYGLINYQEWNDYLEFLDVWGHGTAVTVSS
Sequence of PGT-142 (4995_E20) (antibody) (VL): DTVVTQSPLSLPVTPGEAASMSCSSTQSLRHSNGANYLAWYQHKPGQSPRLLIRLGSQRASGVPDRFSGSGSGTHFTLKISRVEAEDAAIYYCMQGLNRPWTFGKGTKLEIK
Sequence of PGT-143 (4980_N08) (antibody) (VH): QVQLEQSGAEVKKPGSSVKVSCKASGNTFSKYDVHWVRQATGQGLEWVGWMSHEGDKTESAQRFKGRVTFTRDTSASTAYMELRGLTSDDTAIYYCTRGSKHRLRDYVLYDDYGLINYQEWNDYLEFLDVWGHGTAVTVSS
Sequence of PGT-143 (4980_N08) (antibody) (VL): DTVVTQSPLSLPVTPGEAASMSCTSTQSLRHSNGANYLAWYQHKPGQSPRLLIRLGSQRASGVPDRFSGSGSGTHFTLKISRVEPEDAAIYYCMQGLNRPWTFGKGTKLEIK
Sequence of PGT-144 (4970_K22) (antibody) (VH): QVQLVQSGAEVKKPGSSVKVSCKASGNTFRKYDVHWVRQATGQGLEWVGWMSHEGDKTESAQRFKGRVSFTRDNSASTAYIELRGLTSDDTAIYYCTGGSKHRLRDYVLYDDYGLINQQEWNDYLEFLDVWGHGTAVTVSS
Sequence of PGT-144 (4970_K22) (antibody) (VL): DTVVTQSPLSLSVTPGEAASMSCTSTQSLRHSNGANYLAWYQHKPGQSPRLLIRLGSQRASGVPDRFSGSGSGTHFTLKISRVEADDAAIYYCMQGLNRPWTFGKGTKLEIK
Sequence of PGT-141 (4964_G22; 4993_K13) (antibody) (VH): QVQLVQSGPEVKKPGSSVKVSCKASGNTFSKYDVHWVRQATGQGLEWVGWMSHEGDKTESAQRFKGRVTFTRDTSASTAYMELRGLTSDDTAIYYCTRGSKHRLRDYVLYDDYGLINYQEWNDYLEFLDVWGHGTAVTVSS

As to 1496_C09 (PG9) (TCN-109) (antibody), the IC50 (ug/ml), neutralizing activity in experiment [1] turned out to be 0.31 µg/mL. The substance also registered an IC50 neutralization in experiment [1] of 0.31 µg/mL. This substance also yielded an IC80, neutralization in experiment [1] of 1.95 µg/mL. The IC90 (pseudovirus neutralization) in [1] is 3.37 µg/mL. This substance registered an IC90, neutralization in experiment [1] of 5.54 µg/mL. Besides, the IC50 (µg/mL), pseudovirus neutralization was 0.04 µg/mL in experiment [2] and 1.25 µg/mL in [3]. The IC50 (µg/ml), pseudovirus neutralization was found to be 0.04 µg/mL in [2]; 0.19 µg/mL in experiment [4]; 2.08 µg/mL in [5]; 5.67 µg/mL in [6]; 12.4 µg/mL in experiment [7]; 0.37 µg/mL in experiment [9]. Moreover, the IC50 (µg/ml), pseudovirus neutralization in experiment [10] amounted to 0.03 µg/mL. This substance also returned a neutralization IC50 in experiment [8] of 12.9 µg/mL. For the same substance, the IC50 in experiment [11] turned out to be 0.19 µg/mL.
In turn, 4838_L06 (PGT-121) (antibody) displayed an IC50 (ug/ml), neutralizing activity in experiment [12] greater than 10 µg/mL. For the same substance, the IC50 (µg/mL), pseudovirus neutralization in experiment [13] was greater than 50 µg/mL; in experiment [14], 0.018 µg/mL; in [15] it was 0.005 µg/mL; in [16], 0.009 µg/mL; in experiment [20] it was 5.33 µg/mL; in [21] it was greater than 50 µg/mL. The IC50 (µg/mL) neutralization in experiment [17] was determined as 0.196 µg/mL; in experiment [18], 0.123 µg/mL; in [19], 25.1 µg/mL. In addition, in experiment [3], the IC50 is 0.083 µg/mL. Moreover, the IC50, pseudovirus neutralization in experiment [22] was determined as 0.027 µg/mL; in experiment [23], 0.102 µg/mL. In [22], this substance registered a neutralization IC90 of 0.223 µg/mL. This substance displayed a neutralization IC95 in experiment [22] of 0.417 µg/mL.
Turning to 4858_P08 (PGT-123) (antibody), the IC50 (ug/ml), neutralizing activity is 0.0303 µg/mL in experiment [24], 0.846 µg/mL in [1] and greater than 10 µg/mL in experiment [12]. In addition, the IC50, pseudovirus neutralization in experiment [24] is 0.0303 µg/mL; in experiment [1], 0.846 µg/mL; in [12], greater than 10 µg/mL; in experiment [22], 0.046 µg/mL; in [23], 0.15 µg/mL. Further, the IC80, pseudovirus neutralization in experiment [24] was 0.143 µg/mL; in [1], 3.29 µg/mL; in experiment [12] it was greater than 10 µg/mL. In addition, the IC90 (pseudovirus neutralization) in experiment [24] was 0.35 µg/mL; in experiment [1], 8.56 µg/mL; in experiment [12], greater than 10 µg/mL. In addition, the IC95, pseudovirus neutralization in experiment [24] is 0.78 µg/mL; in [1], greater than 10 µg/mL; in [12], greater than 10 µg/mL. Also, the IC50 (µg/mL), pseudovirus neutralization was greater than 50 µg/mL in experiment [13]; 0.012 µg/mL in experiment [14]; 0.007 µg/mL in [15]; 0.132 µg/mL in [16]; 6.89 µg/mL in experiment [20]; greater than 50 µg/mL in experiment [21]. In addition, the values for the IC50 (µg/mL) neutralization in experiment [17], in experiment [18] and in experiment [19] were 0.547 µg/mL, 0.605 µg/mL and 13.1 µg/mL, respectively. Further, in experiment [3], the IC50 was determined as 0.08 µg/mL. Also, the Fold IC50 increase relative to wild-type is 1.1 fold in experiment [25], 2.3 fold in experiment [26], 1.2 fold in experiment [27] and 2.4 fold in experiment [28].
On to 4877_D15 (PGT-122) (antibody), for which the IC50 (ug/ml), neutralizing activity in [24] is 0.191 µg/mL; in experiment [1], 1.46 µg/mL; in experiment [12], greater than 10 µg/mL. Also, the IC50 (µg/mL), pseudovirus neutralization is greater than 50 µg/mL in experiment [13]; 0.019 µg/mL in experiment [14]; 0.007 µg/mL in experiment [15]; 3.34 µg/mL in experiment [16]; 3.27 µg/mL in experiment [20]; greater than 50 µg/mL in [21]. Moreover, the figures for the IC50 (µg/mL) neutralization in experiment [17], in experiment [18] and in experiment [19] were 3.35 µg/mL, 2 µg/mL and greater than 50 µg/mL, respectively. In [3], this substance came in with an IC50 of 0.152 µg/mL. Also, the IC50, pseudovirus neutralization is 0.057 µg/mL in experiment [22] and 0.138 µg/mL in experiment [23].
Regarding 5123_A06 (PGT-125) (antibody), the IC50 (ug/ml), neutralizing activity in experiment [24] was 0.0262 µg/mL; in experiment [1], 0.0124 µg/mL; in [12], greater than 10 µg/mL. Also, the neutralization IC50 is 0.0262 µg/mL in [24], 0.0124 µg/mL in experiment [1] and greater than 10 µg/mL in [12]. For the same substance, the neutralization IC80 in [24] was 0.0926 µg/mL; in experiment [1], 0.0373 µg/mL; in experiment [12] it was greater than 10 µg/mL. The neutralization IC90 in [24] is 0.206 µg/mL; in experiment [1] it was 0.071 µg/mL; in experiment [12], greater than 10 µg/mL. The neutralization IC95 in experiment [24] was 0.487 µg/mL; in [1], 0.129 µg/mL; in experiment [12] it was greater than 10 µg/mL. Further, the IC50 (µg/mL), pseudovirus neutralization in experiment [13] was greater than 50 µg/mL; in [14], 0.008 µg/mL; in experiment [15], greater than 50 µg/mL; in experiment [16], greater than 50 µg/mL; in experiment [20] it was 0.035 µg/mL; in [21] it was 0.361 µg/mL. Moreover, the IC50 (µg/mL) neutralization in [17], in experiment [18] and in experiment [19] was greater than 50 µg/mL each time. The same substance had an IC50 in experiment [3] greater than 50 µg/mL. Besides, the Fold IC50 increase relative to wild-type in [25] amounted to 1.4 fold; in experiment [26], 3.4 fold; in experiment [27], 1.3 fold; in experiment [28], 1.1 fold. Also, the IC50, pseudovirus neutralization in [22] was 0.004 µg/mL; in experiment [23], greater than 50 µg/mL.
In the case of 5145_B14 (PGT-127) (antibody), the IC50 (µg/mL), pseudovirus neutralization was greater than 50 µg/mL in experiment [13]; 0.015 µg/mL in experiment [14]; 0.021 µg/mL in experiment [15]; greater than 50 µg/mL in experiment [16]; 7.17 µg/mL in [20]; greater than 50 µg/mL in [21]. In addition, the IC50 (µg/mL) neutralization in experiment [17] was greater than 50 µg/mL; in experiment [18], 1.07 µg/mL; in experiment [19], greater than 50 µg/mL. Further, the IC50 in experiment [3] was greater than 50 µg/mL. In addition, the Fold IC50 increase relative to wild-type in [25] was 1.5 fold; in experiment [26], 1.7 fold; in experiment [27] it was 2.5 fold; in [28], 2.9 fold. For the same substance, the IC50, pseudovirus neutralization in [22] is 0.018 µg/mL; in experiment [23], greater than 50 µg/mL.
Take PGT-121 (antibody): the IC50 (µg/mL), pseudovirus neutralization in experiment [29] was 0.019 µg/mL; in [2], greater than 50 µg/mL.
On to PGT-122 (antibody), for which the IC50 (µg/mL), pseudovirus neutralization in [29] was 0.084 µg/mL; in experiment [2], greater than 50 µg/mL.
Consider PGT-141 (4964_G22; 4993_K13) (antibody), for which the neutralization IC50 in experiment [30] is greater than 50 µg/mL.
PGT-142 (4995_E20) (antibody): in experiment [30], the neutralization IC50 was greater than 50 µg/mL.
Substance PGT-143 (4980_N08) (antibody) returned a neutralization IC50 in [30] greater than 50 µg/mL.
The substance PGT-144 (4970_K22) (antibody) registered a neutralization IC50 in experiment [30] greater than 50 µg/mL.
PGV04 (antibody) returned an IC50 in experiment [29] of 0.083 µg/mL. Further, the IC50 (µg/mL), pseudovirus neutralization in [2] is 0.569 µg/mL; in [3], 0.084 µg/mL. This substance came in with a neutralization IC50 in experiment [30] greater than 50 µg/mL.
As to VRC01 (antibody), the neutralization IC50 in experiment [31] was 0.138 µg/mL; in experiment [30], greater than 50 µg/mL. The same substance displayed an IC50, pseudovirus neutralization in experiment [3] of 0.17 µg/mL.

Usually IC50 stands for the concentration that gives 50% inhibition. The low end stands for inhibition by little substance, the high end for a need for much substance.

(Values after patent publication US20200024330A1.)
